US20110038894A1

Target: human HLA-A24 and β2-microglobulin (human)
Experiment: MHC-peptide complex formation assay with human HLA-A24 and β2m (procedures of Example 1), sandwich ELISA, relative to positive control peptide

| Binder | Relative binding (%) |
| --- | --- |
| LYFPNGETKY [TAL6 peptide No. 4 of Table 2, …] | 85 |
| TFASTEGQYL [TAL6 peptide No. 10 of Table 2, …] | 116 |
| QYLLDTSTW [TAL6 peptide No. 11 of Table 2, …] | 111 |
| HIVEWNVSLF [TAL6 peptide No. 12 of Table 2, …] | 28 |
| GYCVIVAAL [TAL6 peptide No. 8 of Table 2, …] | 118 |
| FFSGIVGGGL [TAL6 peptide No. 7 of Table 2, …] | 72.4 |
| EWNVSLFSIL [TAL6 peptide No. 15 of Table 2, …] | 22.2 |
| RFVWFFSGI [TAL6 peptide No. 6 of Table 2, …] | 91.9 |
| GGIEFILCL [TAL6 peptide No. 16 of Table 2, …] | 25.3 |
| IVEWNVSLF [TAL6 peptide No. 13 of Table 2, …] | 41 |
| KYASENHLS [TAL6 peptide No. 5 of Table 2, …] | 64.6 |
| CYGKCARCI [TAL6 peptide No. 1 of Table 2, …] | 126 |
| TFASTEGQY [TAL6 peptide No. 9 of Table 2, …] | 49.2 |
| GGIEFILCLI [TAL6 peptide No. 17 of Table 2, …] | 14.8 |
| EWNVSLFSI [TAL6 peptide No. 14 of Table 2, …] | 74 |
| HSLVGLALL [TAL6 peptide No. 2 of Table 2, …] | 61.7 |
